In test [1] the target is T1, avi-β1AR-W (turkey β1-adrenergic receptor, β1AR-MetΔ5 construct with N-terminal biotinylated avi-tag) (turkey, UniProt P07700 1-367, Δ3-32 | Δ244-271 | C358A^8.59 | C116L^3.27 | R68S^1.59 | E130W^3.41 | …, biotin on the avi-tag). The test is described as follows: BLI; isoprenaline. In general terms: BLI is a label-free optical method that tracks binding on a fibre tip over time.

In test [2] the target is T1, avi-β1AR-W (turkey β1-adrenergic …). Nature of the test: BLI; isoprenaline. The source holds these as a separate data set.
Test [3] has as its target T2, avi-β1AR-E (turkey β1-adrenergic receptor, β1AR-E construct with N-terminal biotinylated avi-tag) (turkey, UniProt P07700 1-367, Δ3-32 | Δ244-271 | C358A^8.59 | C116L^3.27 | R68S^1.59 | F327A^7.37 | …, biotin on the avi-tag). Nature of the test: BLI; isoprenaline.
In test [4] the target is T1, avi-β1AR-W (turkey β1-adrenergic …). The test is described as follows: BLI; xamoterol.
For test [5], the target named is T2, avi-β1AR-E (turkey β1-adrenergic …). Nature of the test: BLI; xamoterol.
The target in test [6] is T1, avi-β1AR-W (turkey β1-adrenergic …). The test is described as follows: BLI; salbutamol.
Test [7] deals with T2, avi-β1AR-E (turkey β1-adrenergic …). Nature of the test: BLI; salbutamol.
Test [8] deals with T1, avi-β1AR-W (turkey β1-adrenergic …). The test is described as follows: BLI; isoprenaline. This is another data set of the same source.
Test [9] shares this target. Nature of the test: BLI; isoprenaline. This is another data set of the same source.
Test [10] addresses T2, avi-β1AR-E (turkey β1-adrenergic …). Nature of the test: BLI; isoprenaline. The source holds these as a separate data set.

Experimental findings from PMC10864275 (2024) are described below.

Read-outs that look alike come from different tables or passages of the source.

T1 sequence (P07700 other isoform, or with tags, fused parts or gaps with the stated changes): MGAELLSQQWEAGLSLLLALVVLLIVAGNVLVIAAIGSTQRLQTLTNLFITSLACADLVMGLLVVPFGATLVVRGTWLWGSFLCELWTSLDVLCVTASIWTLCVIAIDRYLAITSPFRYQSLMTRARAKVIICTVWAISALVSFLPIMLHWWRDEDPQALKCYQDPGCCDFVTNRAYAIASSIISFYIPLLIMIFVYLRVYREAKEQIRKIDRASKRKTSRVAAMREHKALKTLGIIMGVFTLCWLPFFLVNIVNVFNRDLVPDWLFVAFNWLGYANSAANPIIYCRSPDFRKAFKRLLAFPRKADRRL
T2 sequence (P07700 other isoform, or with tags, fused parts or gaps with the stated changes): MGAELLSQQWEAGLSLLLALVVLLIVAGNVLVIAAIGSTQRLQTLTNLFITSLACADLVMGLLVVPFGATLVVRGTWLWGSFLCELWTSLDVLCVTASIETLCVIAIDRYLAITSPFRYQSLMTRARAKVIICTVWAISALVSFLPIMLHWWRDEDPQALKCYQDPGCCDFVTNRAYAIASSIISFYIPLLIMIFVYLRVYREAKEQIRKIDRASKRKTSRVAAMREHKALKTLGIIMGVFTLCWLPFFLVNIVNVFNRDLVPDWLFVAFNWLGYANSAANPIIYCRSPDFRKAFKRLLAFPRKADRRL

B1: mini-Gs/q R70 (domain or fragment)
chain: IEKQLQKDKQVYRATHRLLLLGADNSGKSTIVKQMRIYHTSGIFETKFQVDKVNFHMFDVGGQRDERRKWIQCFNDVTAIIFVVDSSDYNRLQEALNDFKSIWNNRWLRTISVILFLNKQDLLAEKVLAGKSKIEDYFPEFARYTTPEDATPEPGEDPRVTRAKYFIRDEFLRISTASGDGRHYCYPHFTCAVDTENARRIFNDCKDIILQMNLREYNLV
Broadly, the Kd is a measure of binding affinity in units of concentration. What is called koff is the rate constant with which the complex falls apart. For B1, in test [1], the affinity, expressed as Kd, was 0.534 µM. The figures for the koff in [2] and in [3] were 0.0067 s⁻¹ and 0.00343 s⁻¹, respectively.

B2: mini-Gs/i R43 with C96A (domain or fragment)
chain: IEKQLQKDKQVYRATHRLLLLGADNSGKSTIVKQMRIYHTSGIFETKFQVDKVNFHMFDVGGQRDERRKWIQAFNDVTAIIFVVDSSDYNRLQEALNDFKSIWNNRWLRTISVILFLNKQDLLAEKVLAGKSKIEDYFPEFARYTTPEDATPEPGEDPRVTRAKYFIRDEFLRISTASGDGRHYCYPHFTCAVDTENARRIFNDVTDIIIKMNLRDCGLF
Molecule B2 returned a Kd in test [1] of 2.53 µM. The koff in test [2] amounted to 0.00623 s⁻¹; in test [3] it was 0.00397 s⁻¹.

B3: mini-Go1 R12 (domain or fragment)
chain: IEKNLKEDGISAAKDVKLLLLGADNSGKSTIVKQMKIIHTTGIVETHFTFKNLHFRLFDVGGQRSERKKWIHCFEDVTAIIFCVDLSDYNRMHESLMLFDSICNNKFFIDTSIILFLNKKDLFGEKIKKSPLTICFPEYTGPNTYEDAAAYIQAQFESKNRSPNKEIYCHMTCATDTNNAQVIFDAVTDIIIANNLRGCGLY
Molecule B3 gave a Kd in [1] of 7.41 µM. For the same molecule, the koff came out at 0.00941 s⁻¹ in [2] and 0.00393 s⁻¹ in test [3].

B4: mini-Gs 393 with C96A (domain or fragment)
chain: GIEKQLQKDKQVYRATHRLLLLGADNSGKSTIVKQMRIYHGGSGGSGGTSGIFETKFQVDKVNFHMFDVGGQRDERRKWIQAFNDVTAIIFVVDSSDYNRLQEALNDFKSIWNNRWLRTISVILFLNKQDLLAEKVLAGKSKIEDYFPEFARYTTPEDATPEPGEDPRVTRAKYFIRDEFLRISTASGDGRHYCYPHFTCAVDTENARRIFNDCRDIIQRMHLRQYELL
As to B4, the equilibrium dissociation constant (Kd) in test [4] was found to be 2.97 µM; in test [5] it was 2.36 µM; in test [6], 1.46 µM; in test [7], 0.962 µM; in test [8], 0.161 µM. For the same molecule, the koff in test [9] is 0.00625 s⁻¹; in test [10], 0.00689 s⁻¹.
